Laboratory results published in the nanobody polyreactivity screen of Harvey et al. (2022).

Assay: yeast display, Sf9 membrane polyspecificity reagent, FACS + sequencing; frameworks hold sequencing errors
Method in brief: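 In a synthetic yeast display library (Saccharomyces cerevisiae BJ5465), nanobody expression was induced with galactose for 36–48 hours. FACS gates were set low and high (top ~1%) using anti-HA fluorescence for expression and streptavidin fluorescence for binding of the Sf9 membrane reagent. Each polyreactivity label is drawn from the gate of origin.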

Which “polyreactivity (PSR sort gate)” value does the source give for “QFQLVESGGGLVQAGGSLRLSCAASGSIFKYYVMGWYRQAPGNERELVATITSDGGTNYADSVKGRFTISRDNAKNTVYLQMNSLKPEDTAVYYCNAASRRGSRKQAKYDYWGQGTQVTVSS” here?
The value was “low polyreactivity”.

With “QVQLVESGGGLVQAGGSLRLSCAASGFTFIRYAMGWYRQAPGKERELVARITSGGSTYYADSVKGRFTISRDNAKNTVYLQMNSLKPEDTAVYYCNADKWYIIQGYYWPGYEYWGQGTQVTVSS” as the sequence, how does the “polyreactivity (PSR sort gate)” value read?
The value was “low polyreactivity”.

Which “polyreactivity (PSR sort gate)” value does the source give for “QVQLVESGGGLVQAGGSIRLSCAASGSTFANYAMGWYRQAPGKERELVAAISWSGSYTYYADSVKGSFTISRDNAKNTVYLQMNSLKPEDTAVYYCAADYDTPTWEYYYWGQGTQVTVSS” here?
The value was “low polyreactivity”.

With “QVQLVESGGGLVQAGGSLRLSCAASGFIFDDNAMGWYRQAPGKERELVATITWSTGSTYYADSVKGRFTISRDNAKNTVYLQMNSLKPEDTAVYYCAKESYFYRYYLAYDYWGQGTQVTVSS” as the sequence, how does the “polyreactivity (PSR sort gate)” value read?
The value was “low polyreactivity”.

With “QVQLVESGGGLVQAGGSLRLSCAASGFTFRGYAMGWYRQAPGKERELVAAIRRGVGSTYYADSVKGRFTISRDNAKNTVYLQMTSLKPEDTAVYYCNKDNAVDRLPWFQVTYDYWGQGTQVTVSS” as the sequence, how does the “polyreactivity (PSR sort gate)” value read?
The value was “low polyreactivity”.

Which “polyreactivity (PSR sort gate)” value does the source give for “QDQLVESGGGLVQAGGSLRLSCAASGFTFRANAMGWYRQAPGKERELVAAISSGGRTNYADSVKGRFTISRDNAKNTVYLQMNSLKTEDTAVYYCAAAPSKWYYGYGYWGQGTQVTVSS” here?
Its value is “high polyreactivity”.

For “QVQLVESGGGLVQAGGSLRLSCAASGSIFRTNAMGWYRQAPGKERELVAAITGSGGSTYYADSVKGRFTISRDNAKNTVYLQMNSLKPVDTAVYYCAADGQLPPRGILASWEFDYWGQGTQVTVSS”, which “polyreactivity (PSR sort gate)” value is on record?
Its value is “low polyreactivity”.

For “QVQLVESGGGLVLAGGRLRLSCADYRSIFAGYAMGWYRQAPGKERELVAAISSSGGRTYYADSVKGRFTISRDNAKNTVYLQMNSLKPEDTAVYYCAVSTYEEEYWGQGTQVTVSS”, which “polyreactivity (PSR sort gate)” value is on record?
Its value is “high polyreactivity”.

For “QFQLVESGGGLVQAGGSLRLSCAASGFIFSNYAMGWYRQAPGKERELVASISWGGGSTYYADSVKGRFTISRDNAKNTVYLQMNSLKPEDTAVYYCATVRSLYSYDYWGQGTQVTVSS”, which “polyreactivity (PSR sort gate)” value is on record?
The value was “high polyreactivity”.

Which “polyreactivity (PSR sort gate)” value does the source give for “QVQLVESCGGLVQAGGSLRLSCAASGGIFGYYAMGWYRQAPGKEREFVAAITLSGGRSYYADSVKGRFTISRDNAKNTVYLQMNSLKPEDTAVYYCNAYPYYLVRNMDSWGQGTQVTVSS” here?
The value was “high polyreactivity”.

With “QVQLVESGGGLVQAGGSLRISCAASGRTFKNYSMGWYRQAPGKERELVAAITSGGITNYADSVKGRFTISRDNAKNTVYLQMNRLKPEDTAVYYCNTRRGWRDFDYWGQGTQVTVSS” as the sequence, how does the “polyreactivity (PSR sort gate)” value read?
The value was “low polyreactivity”.

For “QVQLVESGGGLVQAGGSLRLSCAASGFILRAYAIGWYRQAPGKERELVAAITSATSTNYADSVKGRFTISRDNAKNTVYLQMNSLKPEDTAVYYCAADGGGGEFSYDSWGQGTQVTVSS”, which “polyreactivity (PSR sort gate)” value is on record?
The value was “low polyreactivity”.

With “QVQLVESGGGLVQAGGSLRLSCAASGFTVSYNTMGWYRQAPGKERELVAAISARGTSTYYADSVKGRFTISRDNAKNTVYLQMNSLKPEDTAVYYCAAAYRIGSGYWGQGTQVTVSS” as the sequence, how does the “polyreactivity (PSR sort gate)” value read?
The value was “high polyreactivity”.

Which “polyreactivity (PSR sort gate)” value does the source give for “QVQLVESGGGLVQAGGSLRLSCAASGSTFDTYAMGWYRPAPGKERELVAGMTRRGGRTYYADSVKGRFTISRDTAKNTVYLQKNSLKPEDTADYYCNAVPQRPVGKLDHWGQGTQVTVSS” here?
The value was “high polyreactivity”.

Which “polyreactivity (PSR sort gate)” value does the source give for “QVQLVESGGGLVQAGGSLRLSCAASGSTRYYMGWYRQAPGKEREMVAAISKSGGTTYYADSVKGRFTISRDNAMTTVYLQMTSLKPEDTAVYYCAAQRSRSYTYDYWGQGTQVTVSS” here?
Its value is “high polyreactivity”.

Which “polyreactivity (PSR sort gate)” value does the source give for “QVQLVESGGGLVQAGGSLRLICAASGSIFTHNTMGWYRQAPGKERELVASIDSGASTNYADSVKGRFTISRDNAKNTVYLQMNSLKPEDTAVYYCAADDAKFRYRDDYWGQGTQVTVSS” here?
The value was “low polyreactivity”.

Which “polyreactivity (PSR sort gate)” value does the source give for “QVQLVESGGGLVQAGGSLRLSCAASGRTFYYYAMGWYRQAPGKERELVAAIRWRGGRTYADSVKGRFTISRDNAKNTVYLQMNSLKQEDTAVYYCNAGFHYPSTYWIYYSGGNYWGQGTQVTVSS” here?
The value was “high polyreactivity”.

For “QVQLVEAGGGLVQAGGSLRLSGAASGFTLYANAMGWYRQAPGKERELVADISVSGSSTAYADSVKGRFTISRDNAKNTVYLQMNSLKPEDTAVYYCNADQGTRDSDYWGQGTQVTVSS”, which “polyreactivity (PSR sort gate)” value is on record?
The value was “low polyreactivity”.

For “KVQLVESGSGLVQAGGSHSISCAASGGTIACYVMGWYRPAPGKEREFVATISWSGTSTYYADSVKGRFTISRDNAKNTVDLLMYSLKPEDTAVFYCNKPGSSWPDFYSYNYWGLGTQVTVSS”, which “polyreactivity (PSR sort gate)” value is on record?
The value was “low polyreactivity”.

For “QVQLVESGGGLVQAGGSLRLSCAASGRIFAYNALGWYRQAPGKERELVAAISWSGSSTYYADSVKGRFTISRDNAQNRVYLQMNSLTPEDTAVYYCAATPWYYYSTSYAYYDWGQGTQVTVSA”, which “polyreactivity (PSR sort gate)” value is on record?
The value was “high polyreactivity”.

With “QVQLVESGGGLVQAGGSLRLSCAASGSTFRIYVMGWYRQAPGKEREFVAAISRGGGSTYYADSVKGRFTISRDNAKNTVYLQMNSLKPVDTAVYYCAAVTRDYGSRSGLDYWGQGTQVTVSS” as the sequence, how does the “polyreactivity (PSR sort gate)” value read?
Its value is “high polyreactivity”.

With “QVQLVESGGGLVQAGGSLRLSCAASGLILYYYDMGWYRQAPGKERELVAAISWNGDDTYYADSVKGRFTISRDNAKNTVYLQMNSLKPEDTAVYYCAAEGPPQTDDYWGQATQVTVSS” as the sequence, how does the “polyreactivity (PSR sort gate)” value read?
The value was “high polyreactivity”.

For “QVQLVESGGGLVQAGGSLRLSCAASGPIFATNAMGWYRQAPGKERELVASISSGGGSTYYADSVKGRFTISRDNAKNTVYLQMNSLKPEDTAVYYCAADYYTGYVWEDYYWGQGTQVTVSS”, which “polyreactivity (PSR sort gate)” value is on record?
The value was “low polyreactivity”.

For “QVQLVESGGGLVQAGGSLRLSCAASGFTFPANAMGWYRQAPGKERELVATITWSGGNTYYADSVKGRFTISRDNAKNTVYLQMNSLKPEDTAVYYCAKDYDPYHEQQSSEHDDYWGQGTQVTVSS”, which “polyreactivity (PSR sort gate)” value is on record?
Its value is “low polyreactivity”.

Which “polyreactivity (PSR sort gate)” value does the source give for “QVQLVESGGGLVQAGGSLRLSCAASGGTIAPYAMGWSRQAPGKERELVATISYSGTSTNYADSVKGRFTISRDNAKNTVYLQMNSLKPEDTAVYDCAKRYHQYRWRGWLWGFDYWGQGNQVTVSS” here?
Its value is “high polyreactivity”.

Which “polyreactivity (PSR sort gate)” value does the source give for “QVQLVESGGGLVQAGGSLRLSCPASGSTFKRNAMGWYRQAPGKERELVATITRRGGSTYADSVNGRFTISRDNAKNTVYLQMNSLKAEDTAVYYCARDGFSAGMDYWGQGTQVTVSS” here?
The value was “low polyreactivity”.

For “QVQLVESGGGLVQAGGSLRLSCAASGSTFYTNAMGWSRQAPGKERELVASIDRGGGSTYYAESVKGRFTISRDNAKNTVYLQMNSLKPEDTAVYYCAASFDGRYWGYYYWGQGTKVTVSS”, which “polyreactivity (PSR sort gate)” value is on record?
The value was “low polyreactivity”.

With “QVQLVESGGGLVQAGGSLRLSCAASGSTFTGNSMGWYRQAPGKERELVAAISRSGGSTFYADSVKGRFTISRDNAKNTVSLQMNSLKPEDTAVYYCATRYVVDMDYWGQGTQVTVSS” as the sequence, how does the “polyreactivity (PSR sort gate)” value read?
Its value is “high polyreactivity”.

For “QVQLVESGGGLVQAGGSLRLSCAASGFTFNYYAMGWYRQAPGKEREFVAAISYGGGDTYYADSVKGRFTISRDNAKNTVYLQMNSLKPEDTAVYYCNARFRKRAYRYDYWGQGTLVTVSS”, which “polyreactivity (PSR sort gate)” value is on record?
The value was “high polyreactivity”.

Which “polyreactivity (PSR sort gate)” value does the source give for “QVQLVESGGGLVQAGGSLRLSCAASGSIFGGNAMGWYRQAPGKERELVAAITDGGNTNYADSVKGRFTISRDNAKNTVYLQINSLKPEDTAVYYCAARIPGTYGGRYGYDYWGQGTQVTVSS” here?
Its value is “low polyreactivity”.

Which “polyreactivity (PSR sort gate)” value does the source give for “QVQLVESGGGLVQAGGSLRLSCADSGRTIDVYAMGWYRHAPGKEREFVAAISTGASTCYADSVKGRFTISRDNAKNTVYLQMNSLKTEDTGVYYCAKRVTRWYGYWGQGTQVTVSA” here?
Its value is “high polyreactivity”.

For “QVQLEESGGGLVQAGGSLRLSCAASGIIFKLYAMGWYRQAPGKERELVAAITYRGGTTYYADSVKGRFTISRDNAKNTDYLQMNSLKPEDTAVYYCAVAVTSYSSKKLYYWGQGTQVTVSS”, which “polyreactivity (PSR sort gate)” value is on record?
The value was “low polyreactivity”.
